# According to the supplement of paper PMC9112550, “Optimization of the antimicrobial peptide Bac7 by deep mutational scanning” (BMC Biology, 2022):
# System: Escherichia coli TOP10
# Test: shrunken log2 fold change of peptide-encoding DNA abundance (4.5 h post-induction vs induction); higher = less antimicrobial activity (less host growth inhibition)
# Conditions: time post-induction: 4.5 h; library: site-saturation at positions 5, 18, 19, 20
# 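Note: peptides expressed intracellularly from a pBAD plasmid library in pooled LB shake-flask culture, induced with 0.3% L-arabinose, DNA abundance read by NGS, three biological replicates, DESeq2 with apeglm shrinkage.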
row,Sequence,shrunken log2 fold change
1,RRIRPRPPRLPRPRPRPSIHPRP,-0.974
2,RRIRVRPPRLPRPRPRPYFIPRP,-0.72
3,RRIRQRPPRLPRPRPRPNWKPRP,0.135
4,RRIRVRPPRLPRPRPRPWGDPRP,0.148
5,RRIRERPPRLPRPRPRPTANPRP,-0.154
6,RRIRMRPPRLPRPRPRPTVCPRP,0.53
7,RRIRFRPPRLPRPRPRPSQIPRP,-0.253
8,RRIRGRPPRLPRPRPRPGYDPRP,0.371
9,RRIRIRPPRLPRPRPRPEKMPRP,-0.165
10,RRIRFRPPRLPRPRPRPEMSPRP,0.000731
11,RRIRMRPPRLPRPRPRPLGAPRP,1.25
12,RRIRHRPPRLPRPRPRPIQFPRP,-0.482
13,RRIRWRPPRLPRPRPRPYTHPRP,-0.536
14,RRIRTRPPRLPRPRPRPVINPRP,-0.189
15,RRIRNRPPRLPRPRPRPSIKPRP,-0.0594
16,RRIRFRPPRLPRPRPRPQAAPRP,1.04
17,RRIRDRPPRLPRPRPRPLAMPRP,0.767
18,RRIRTRPPRLPRPRPRPDWAPRP,0.327
19,RRIRFRPPRLPRPRPRPGDPPRP,0.566
20,RRIRTRPPRLPRPRPRPDLSPRP,0.057
21,RRIRWRPPRLPRPRPRPHVFPRP,-0.154
22,RRIRKRPPRLPRPRPRPPDLPRP,0.444
23,RRIRVRPPRLPRPRPRPWAFPRP,-0.189
24,RRIRCRPPRLPRPRPRPDNYPRP,-0.921
25,RRIRRRPPRLPRPRPRPSMDPRP,0.0821

row,Sequence,shrunken log2 fold change
1,RRIRVRPPRLPRPRPRPQGGPRP,-0.0824
2,RRIRKRPPRLPRPRPRPHPRPRP,1.27
3,RRIRMRPPRLPRPRPRPCVGPRP,0.584
4,RRIRWRPPRLPRPRPRPKYCPRP,-0.245
5,RRIRWRPPRLPRPRPRPCHIPRP,-0.414
6,RRIRTRPPRLPRPRPRPHQPPRP,-0.0196
7,RRIRLRPPRLPRPRPRPDALPRP,-0.354
8,RRIRKRPPRLPRPRPRPWTGPRP,-0.0587
9,RRIRQRPPRLPRPRPRPTYRPRP,0.06
10,RRIRLRPPRLPRPRPRPFPVPRP,0.11
11,RRIRQRPPRLPRPRPRPTAMPRP,0.0174
12,RRIRPRPPRLPRPRPRPRFWPRP,0.579
13,RRIRDRPPRLPRPRPRPGCPPRP,0.0445
14,RRIRSRPPRLPRPRPRPIMPPRP,-0.121
15,RRIRPRPPRLPRPRPRPDRPPRP,-0.0807
16,RRIRQRPPRLPRPRPRPAMMPRP,0.00621
17,RRIRERPPRLPRPRPRPRFGPRP,0.152
18,RRIRLRPPRLPRPRPRPRIWPRP,0.394
19,RRIRFRPPRLPRPRPRPKWWPRP,-0.0582
20,RRIRCRPPRLPRPRPRPGDKPRP,-0.441
21,RRIRPRPPRLPRPRPRPHPYPRP,-0.576
22,RRIRVRPPRLPRPRPRPDAQPRP,-0.136
23,RRIRQRPPRLPRPRPRPIHWPRP,-0.198
24,RRIRQRPPRLPRPRPRPEDLPRP,0.125
25,RRIRDRPPRLPRPRPRPEQSPRP,0.964

row,Sequence,shrunken log2 fold change
1,RRIRDRPPRLPRPRPRPDSWPRP,0.0194
2,RRIRHRPPRLPRPRPRPNYAPRP,0.0414
3,RRIRKRPPRLPRPRPRPIFWPRP,0.313
4,RRIRRRPPRLPRPRPRPWDWPRP,0.428
5,RRIRNRPPRLPRPRPRPETIPRP,-0.0777
6,RRIRDRPPRLPRPRPRPCLFPRP,0.076
7,RRIRRRPPRLPRPRPRPIYGPRP,-0.69
8,RRIRDRPPRLPRPRPRPTRTPRP,0.246
9,RRIRIRPPRLPRPRPRPQKIPRP,-0.148
10,RRIRFRPPRLPRPRPRPPGLPRP,0.573
11,RRIRARPPRLPRPRPRPEMTPRP,1.23
12,RRIRIRPPRLPRPRPRPTNRPRP,-0.326
13,RRIRVRPPRLPRPRPRPVTFPRP,-0.467
14,RRIRTRPPRLPRPRPRPALMPRP,0.165
15,RRIRKRPPRLPRPRPRPHKEPRP,-0.0849
16,RRIRARPPRLPRPRPRPFQCPRP,0.0143
17,RRIRMRPPRLPRPRPRPKSMPRP,0.0732
18,RRIRYRPPRLPRPRPRPNRLPRP,-0.0455
19,RRIRWRPPRLPRPRPRPDHRPRP,-0.0843
20,RRIRKRPPRLPRPRPRPNFDPRP,0.367
21,RRIRARPPRLPRPRPRPDHRPRP,0.0154
22,RRIRGRPPRLPRPRPRPLHIPRP,0.105
23,RRIRVRPPRLPRPRPRPRMSPRP,-0.079
24,RRIRLRPPRLPRPRPRPDMFPRP,-0.218
25,RRIRERPPRLPRPRPRPAECPRP,-0.0953

row,Sequence,shrunken log2 fold change
1,RRIRHRPPRLPRPRPRPPGCPRP,0.184
2,RRIRLRPPRLPRPRPRPYLNPRP,-1.13
3,RRIRCRPPRLPRPRPRPHFVPRP,-0.23
4,RRIRSRPPRLPRPRPRPMWEPRP,0.0252
5,RRIRDRPPRLPRPRPRPRMEPRP,-0.239
6,RRIRPRPPRLPRPRPRPLSGPRP,0.0234
7,RRIRWRPPRLPRPRPRPCNPPRP,-0.00159
8,RRIRPRPPRLPRPRPRPTFNPRP,-0.155
9,RRIRYRPPRLPRPRPRPQFTPRP,-0.308
10,RRIRWRPPRLPRPRPRPLEMPRP,0.373
11,RRIRRRPPRLPRPRPRPMKCPRP,-0.0984
12,RRIRARPPRLPRPRPRPFRTPRP,0.12
13,RRIRQRPPRLPRPRPRPLVIPRP,-0.682
14,RRIRMRPPRLPRPRPRPCGTPRP,1.97
15,RRIRERPPRLPRPRPRPKMTPRP,-0.0406
16,RRIRNRPPRLPRPRPRPVHEPRP,-0.00149
17,RRIRTRPPRLPRPRPRPMCCPRP,-0.182
18,RRIRQRPPRLPRPRPRPTCGPRP,0.285
19,RRIRRRPPRLPRPRPRPSVKPRP,0.155
20,RRIRKRPPRLPRPRPRPIGNPRP,0.0844
21,RRIRCRPPRLPRPRPRPRLGPRP,0.485
22,RRIRRRPPRLPRPRPRPYLDPRP,-0.546
23,RRIRQRPPRLPRPRPRPNHWPRP,-0.176
24,RRIRDRPPRLPRPRPRPGTKPRP,-0.0282
25,RRIRERPPRLPRPRPRPAFSPRP,0.122

row,Sequence,shrunken log2 fold change
1,RRIRPRPPRLPRPRPRPMEWPRP,-0.0225
2,RRIRWRPPRLPRPRPRPYLDPRP,-0.33
3,RRIRRRPPRLPRPRPRPKPLPRP,0.474
4,RRIRMRPPRLPRPRPRPHSMPRP,-0.0253
5,RRIRYRPPRLPRPRPRPEQSPRP,0.0157
6,RRIRSRPPRLPRPRPRPLIEPRP,-0.06
7,RRIRIRPPRLPRPRPRPQSCPRP,-0.0388
8,RRIRHRPPRLPRPRPRPPTWPRP,0.0706
9,RRIRERPPRLPRPRPRPFKNPRP,-0.174
10,RRIRFRPPRLPRPRPRPWNLPRP,0.0325
11,RRIRMRPPRLPRPRPRPHHWPRP,0.439
12,RRIRGRPPRLPRPRPRPDGIPRP,-0.0219
13,RRIRDRPPRLPRPRPRPVTRPRP,0.348
14,RRIRFRPPRLPRPRPRPFFLPRP,-0.32
15,RRIRLRPPRLPRPRPRPSEPPRP,-0.114
16,RRIRHRPPRLPRPRPRPHHAPRP,-0.0366
17,RRIRFRPPRLPRPRPRPLNSPRP,-0.377
18,RRIRMRPPRLPRPRPRPSPTPRP,1.15
19,RRIRERPPRLPRPRPRPKTIPRP,-0.232
20,RRIRRRPPRLPRPRPRPAEDPRP,0.987
21,RRIRQRPPRLPRPRPRPFWCPRP,0.0825
22,RRIRDRPPRLPRPRPRPFESPRP,-0.00133
23,RRIRPRPPRLPRPRPRPTKYPRP,-0.344
24,RRIRLRPPRLPRPRPRPYPRPRP,-0.0678
25,RRIRFRPPRLPRPRPRPFAWPRP,-0.0558

row,Sequence,shrunken log2 fold change
1,RRIRIRPPRLPRPRPRPHQDPRP,-0.122
2,RRIRERPPRLPRPRPRPSDTPRP,-0.287
3,RRIRCRPPRLPRPRPRPDHFPRP,-0.175
4,RRIRYRPPRLPRPRPRPYKHPRP,-1.18
5,RRIRMRPPRLPRPRPRPSSDPRP,0.111
6,RRIRMRPPRLPRPRPRPESDPRP,3.34
7,RRIRERPPRLPRPRPRPSQCPRP,-0.0684
8,RRIRERPPRLPRPRPRPASMPRP,0.0524
9,RRIRNRPPRLPRPRPRPQICPRP,-0.0199
10,RRIRPRPPRLPRPRPRPSCQPRP,-0.733
11,RRIRDRPPRLPRPRPRPINKPRP,-0.287
12,RRIRNRPPRLPRPRPRPQSWPRP,-0.0543
13,RRIRARPPRLPRPRPRPMLYPRP,0.249
14,RRIRCRPPRLPRPRPRPMDPPRP,-0.543
15,RRIRERPPRLPRPRPRPKVVPRP,-0.0857
16,RRIRERPPRLPRPRPRPRPAPRP,0.434
17,RRIRCRPPRLPRPRPRPQAQPRP,0.315
18,RRIRVRPPRLPRPRPRPCLNPRP,-0.193
19,RRIRQRPPRLPRPRPRPDTPPRP,-0.039
20,RRIRTRPPRLPRPRPRPKLNPRP,0.097
21,RRIRDRPPRLPRPRPRPCWRPRP,0.101
22,RRIRSRPPRLPRPRPRPNHQPRP,-0.139
23,RRIRKRPPRLPRPRPRPNWTPRP,-0.129
24,RRIRKRPPRLPRPRPRPMVFPRP,-0.0194
25,RRIRMRPPRLPRPRPRPYRVPRP,0.111
